Reference: the supplement of paper PMC9170038

Tested on: MS2 coat protein
Assay: apparent KD of MS2 coat protein; designed switch direction (-1 OFF switch, 1 ON switch): 1; higher = weaker reporter binding
In short: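 The apparent KD reported per design is the median over clusters of curve fits to normalised cluster fluorescence. The RNA switches were transcribed on Illumina chips by stalled E. coli RNA polymerase. SNAP-549-labelled MS2 coat protein was titrated from 0.7 or 1.5 nM, doubling up to 3 µM, in Tris-HCl pH 7.5 buffer containing KCl, MgCl2, BSA, DTT, tRNA and Tween-20, with no input, 200 uM small-molecule ligand, or an oligonucleotide input.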

[1] = input ligand: microRNA oligo, concentration not stated
[2] = Eterna round: R95, input ligand: FMN 200 uM
[3] = Eterna round: R95, input ligand: microRNA oligo, concentration not stated
[4] = Eterna round: R95, input ligand: none

Sequence	apparent KD of MS2 coat protein (input ligand: FMN 200 uM) [nM]	apparent KD of MS2 coat protein [1] [nM]	apparent KD of MS2 coat protein (input ligand: none) [nM]	apparent KD of MS2 coat protein [2] [nM]	apparent KD of MS2 coat protein [3] [nM]	apparent KD of MS2 coat protein [4] [nM]
GGAGCCGGCCUAGGAUAUUUCAUAAAAAGACAUGAGGAUCACCCAUGUAGGCCAGAAGGCCUUGGGAAGAAGGAGGUCGGCUCC [Loop Effect - G29] (Eterna round: R96, puzzle: Same State NG 2)	20.8	22.7	32.9			
GGAGCCGGCCUAGGAUAUUUCAUAUAAAAACAUGAGGAUCACCCAUGUAGGCCAGAAGGCCUUGGGAAGAAGGAGGUCGGCUCC [Loop Effect - U25] (Eterna round: R96, puzzle: Same State NG 2)	12.4	27.2	30.1			
GGAGCCGGCCUAGGAUAUUUCAUAUAAUAACAUGAGGAUCACCCAUGUAGGCCAGAAGGCCUUGGGAAGAAGGAGGUCGGCUCC [Loop Effect - U25,U28] (Eterna round: R96, puzzle: Same State NG 2)	13.1	39.1	50.8			
GGAGCCGGCCUAGGAUAUUUCAUAUUAAAACAUGAGGAUCACCCAUGUAGGCCAGAAGGCCUUGGGAAGAAGGAGGUCGGCUCC [Loop Effect - U25,U26] (Eterna round: R96, puzzle: Same State NG 2)	15.2	50.7	87.8			
GGAGCCGGCCUAGGAUAUUUCAUAUUUAAACAUGAGGAUCACCCAUGUAGGCCAGAAGGCCUUGGGAAGAAGGAGGUCGGCUCC [Loop Effect - U25,U26,U27] (Eterna round: R96, puzzle: Same State NG 2)		57.4				
GGAGCCGGUACUGAGGAUAUUCGUAUUAAAACAUGAGGAUCACCCAUGUAGGCCAGAAGGCCUUGGGAGAAGGCAGAUCGGCUCC [Biseusra - 1] (puzzle: Same State 2)				13.2	36	48.3
GGAGGACAUGAGGAUCACCCAUGUGGAUGGGCGCUAGGAUAUGCGUGCGGGAAGAGUGGAGCAGAAGGAGUGGGUU [JR_SS1_Sub045] (Eterna round: R96, puzzle: Same State 1)	66.8	41.9	55.6			
GGAGGACAUGAGGAUCACCCAUGUGGAUGGGCGCUAGGAUAUGCGUGCGGGAAGAGUGGAGCAGAAGGAGUGGGUU [JR_SS1_Sub045] (puzzle: Same State 1)					37.4	
GGAUCCGGCACUGAGGAUAUUCAUAUUUAAACAUGAGGAUCACCCAUGUAGGCCAGAAGGCCUUGGGAGAAGGCAGGUCGGCUCG [salish99_ss2_r3_082] (puzzle: Same State 2)				27.6	268	484
GGAUGAUAGACAGGAUAUUGAUUGUAAUUUUGUCAAGAAGGGUCUUUGAUUUAAACGACCAGUUACAUGAGGAUCACCCAUGUU [JR_SSNG1_Sub030] (Eterna round: R96, puzzle: Same State NG 1)	20.1	27.6	30.3			
GGAUUGGAGGCAGGAUAUGGGCUCAGAACAUGAGGAUCACCCAUGUAAAACGGCGCGAUGCGCCACCAGAAGGGCCUCCGAUCG [Tiaonbira] (Eterna round: R96, puzzle: Same State NG 2)	12.8	23.8	37.3			
GGCAGACAUGAGGAUCACCCAUGUCGGCCGUUAGGAGGAUAUCGGUGAUAUCUGUCUCGCCGAGAAGGUUUAAUUA [Onaterleza] (puzzle: Same State 1)					9.71	
GGCAGGUGCAGGCUUGCUUGCACCUGGAAACAUGAGGAUCACCCAUGUUUGGGACAAGCUUUGCUCCUCGUUUUGUC [JL ViennaUCT Isusreraar mod 3] (puzzle: Sensor for hsa-mir-208a)				209	133	288
GGCGAACAGGCUAACAUGAGGAUCACCCAUGUGGACUCAUGGUAGGAUAUCGGGAAGGAGGAAACCGAGAAGGGCCGGUGAGCC [AK SSNG3-V2-48] (Eterna round: R96, puzzle: Same State NG 3)	14.3	20	716			
GGGAGACAUGAGGAUCACCCAUGUGGGAGGGAACGAGGAUAUGUAAGGAGAGAGAAUAGAACAGAAGGCGUAGGUG [JR_SS1_Sub022] (puzzle: Same State 1)				50	50	61.9
GGGCCAGCUUGUGCUGGGCCUUCGCAUGCACAUGAGGAUCACCCAUGUCGUGUACAUGCUUUUUGCUCGUCUUUAAA [Photon Torp-11] (puzzle: Sensor for hsa-mir-208a)				39.6	14	40.8

Sequence	apparent KD of MS2 coat protein (input ligand: FMN 200 uM) [nM]	apparent KD of MS2 coat protein [1] [nM]	apparent KD of MS2 coat protein (input ligand: none) [nM]	apparent KD of MS2 coat protein [2] [nM]	apparent KD of MS2 coat protein [3] [nM]	apparent KD of MS2 coat protein [4] [nM]
GGGCCAGCUUGUGCUGGGCCUUCGCUUGCACAUGAGGAUCACCCAUGUCGUGUACAUGCUUGGUGCCCGUCUUUCCC [Photon Torp-15] (puzzle: Sensor for hsa-mir-208a)				182	49.2	201
GGUAAGAACUAAGGAUAUUGAAUACAUAUGUUUAACAUGAGGAUCACCCAUGUGGGUUGCGGUGUCGAGAAGGUAGAAUAAUAG [Mat - same State NG 2 - JL mod - D102] (Eterna round: R96, puzzle: Same State NG 2)	204	166	193			
GGUAGGUUACUACCAACACAUGAGGAUCACCCAUGUUAUGGGAAGGAUAUGGUACCUAUUUGGUACCAGAAGGUCCAGUUAAUU [Fiskers NG3ss - 16] (Eterna round: R96, puzzle: Same State NG 3)	77.6	206	449			
GGUCCAGCCUGAGCUGGACAAAAGCAUGUACAUGAGGAUCACCCAUGUCAUGUACAAGCUUUUUGCUCGUUUUAAAA [JL mod - D87 - 14] (puzzle: Sensor for hsa-mir-208a)				527	14.5	576
GGUCCAGCCUGAGCUGGACAAAAGCAUGUACAUGAGGAUCACCCAUGUUAUGUACAAGCUUUUUGCUCGUCUUAAAA [JL mod - D87 - 10] (Eterna round: R96, puzzle: Sensor for hsa-mir-208a)	183	12.2	188			
GGUCCAGCCUGAGCUGGACAAAAGCAUGUACAUGAGGAUCACCCAUGUUAUGUACAAGCUUUUUGCUCGUCUUAAAA [JL mod - D87 - 10] (puzzle: Sensor for hsa-mir-208a)				172	12.6	231
GGUCCAGCCUGAGCUGGACAAAAGCAUGUACAUGAGGAUCACCCAUGUUCAUGUACAAGCUUUUUGCUCGUCUUACA [salish99_208a_r3_084] (puzzle: Sensor for hsa-mir-208a)				485	14.8	443
GGUCCAGCCUGAGCUGGACAAAAGUAUGUACAUGAGGAUCACCCAUGUCAUGUACAAGCUUUUUGCUCGUCUUAAAA [JL mod - D87 - 9] (puzzle: Sensor for hsa-mir-208a)				430	22.4	486
GGUCCAGCCUGAGCUGGACGGUAGUAUGUACAUGAGGAUCACCCAUGUCAUGUAGAAGUUACUUGUUCGUCUUGAAC [SENSOR #1] (puzzle: Sensor for hsa-mir-208a)				15.1	13.3	14.9
GGUCCAGCCUGAGCUGGACUACAGCAUGUACAUGAGGAUCACCCAUGUCAUGUACAUGUUUUUUGUUUGUCUUAAAA [Sensorship 9 - Jieux - Sensor for hsa-mir-208a] (Eterna round: R96, puzzle: Sensor for hsa-mir-208a)	200	57.5	503			
GGUCCAGCCUGAGCUGGACUACAGCAUGUACAUGAGGAUCACCCAUGUCAUGUACAUGUUUUUUGUUUGUCUUAAAA [Sensorship 9 - Jieux - Sensor for hsa-mir-208a] (puzzle: Sensor for hsa-mir-208a)				69	70.1	99.4
GGUCCAUCAUGAGGAUAUGGCACCUUAUUGGUGCCAGAAGGCAUGUCUAUGACAUGAGGAUCACCCAUGUAAAUAAAUUGGACC [Eli NG1ss - 94] (Eterna round: R96, puzzle: Same State NG 1)	32.3	243	232			
GGUCCCUACGCACAGGAUAUUCUUUUGGCAACAUGAGGAUCACCCAUGUGUGCCGAUCAUGGUUAGAAGAAGGGUGGUAAGGACG [Qucesosobe] (puzzle: Same State 2)				9.76	10.8	12.2
GGUCCGGCCUGAGCUGGACCGAAGCAUGUACAUGAGGAUCACCCAUGUUCAUGUGCAGGCUUUUUGCUCGUCUUGUG [JL-shm-2.05 JL mod] (puzzle: Sensor for hsa-mir-208a)				91.7	12.7	106
GGUCGGACUCACAUGAGGAUCACCCAUGUUGCGGAAACGCGAUAGGAUAUCUGUCCGAAAAGGUCAGAGAAGGGUCAACCGACC [Fiskers NG3ss - 64] (Eterna round: R96, puzzle: Same State NG 3)	447	486	567			
